Test results published in publication PMC6509562, “Properties of the HtrA Protease From Bacterium Helicobacter pylori Whose Activity Is Indispensable for Growth Under Stress Conditions” (Frontiers in Microbiology, 2019).

B1: HtrAEcS210A from Escherichia coli (enzyme, UniProt P0C0V0 27-474, looked up)
chain: AETSSATTAQQMPSLAPMLEKVMPSVVSINVEGSTTVNTPRMPRNFQQFFGDDSPFCQEGSPFQSSPFCQGGQGGNGGGQQQKFMALGSGVIIDADKGYVVTNNHVVDNATVIKVQLSDGRKFDAKMVGKDPRSDIALIQIQNPKNLTAIKMADSDALRVGDYTVAIGNPFGLGETVTSGIVSALGRSGLNAENYENFIQTDAAINRGNAGGALVNLNGELIGINTAILAPDGGNIGIGFAIPSNMVKNLTSQMVEYGQVKRGELGIMGTELNSELAKAMKVDAQRGAFVSQVLPNSSAAKAGIKAGDVITSLNGKPISSFAALRAQVGTMPVGSKLTLGLLRDGKQVNVNLELQQSSQNQVDSSSIFNGIEGAEMSNKGKDQGVVVNNVKTGTPAAQIGLKKGDVIIGANQQAVKNIAELRKVLDSKPSVLALNIQRGDSTIYLLMQ
notes: also called DegP S210A; S/A

Experiments:
[1] = target: HtrAHpS221A from H. pylori strain N6 (Helicobacter pylori strain N6) (UniProt B5Z6H5); assay: AUC
[2] = target: the molecule itself; assay: SEC; Superose 12HR 10/30, 300 mM NaCl, 50 mM Na-phosphate pH 6.5 or 8.0, room temperature; refolded HtrA variant 41 uM without substrate

| Molecule | content of peak 1 (6.1 S) at 0.65 mg/ml [1] [%] | content of peak 1 (6.1 S) at 1.6 mg/ml [1] [%] | content of peak 1 (6.1 S) at 3.3 mg/ml [1] [%] | content of peak 2 (8.9 S) at 3.3 mg/ml [1] [%] | content of peak 3 (10.3 S) at 1.6 mg/ml [1] [%] | content of peak 3 (10.6 S) at 3.3 mg/ml [1] [%] | content of peak 3 (11.0 S) at 0.65 mg/ml [1] [%] | content of peak 4 (12.4 S) at 3.3 mg/ml [1] [%] | content of peak 4 (13.0 S) at 1.6 mg/ml [1] [%] | content of peak 5 (15.7 S) at 3.3 mg/ml [1] [%] | content of peak 5 (15.8 S) at 0.65 mg/ml [1] [%] | content of peak 5 (15.8 S) at 1.6 mg/ml [1] [%] | content of peak 6 (19.5 S) at 3.3 mg/ml [1] [%] | content of peak 6 (19.9 S) at 0.65 mg/ml [1] [%] | content of peak 6 (19.9 S) at 1.6 mg/ml [1] [%] | content of peak 7 (22.8 S) at 3.3 mg/ml [1] [%] | content of peak 8 (24.5 S) at 0.65 mg/ml [1] [%] | content of peak 8 (25.6 S) at 1.6 mg/ml [1] [%] | content of peak 8 (25.8 S) at 3.3 mg/ml [1] [%] | stoichiometry N [2] |
| --- | --- | --- | --- | --- | --- | --- | --- | --- | --- | --- | --- | --- | --- | --- | --- | --- | --- | --- | --- | --- |
| HtrAHpS221A from H. pylori strain N6 (from UniProt B5Z6H5 1-476) (enzyme) | 38 | 38 | 38 | 3.4 | 8.8 | 5.1 | 12 | 3.8 | 3.2 | 9 | 8.1 | 7.9 | 28 | 29 | 30 | 3.1 | 4.8 | 5.9 | 3.6 | – |
| B1 | – | – | – | – | – | – | – | – | – | – | – | – | – | – | – | – | – | – | – | 6 |
